According to article PMC12444478, “Structural insights into the substrate transport mechanism of the amino acid transporter complex” (The Journal of Biological Chemistry, 2025):

Target: T1, 4F2hc (CD98hc, SLC3A2), isoform b (human, UniProt P08195-5 1-631)
T1 construct: Purified as a complex with m1 (LAT1); also called heavy chain; source: HEK293F, coexpressed with LAT1, purified (anti-FLAG resin, nickel-NTA, size-exclusion chromatography in GDN)
T1 sequence (looked up): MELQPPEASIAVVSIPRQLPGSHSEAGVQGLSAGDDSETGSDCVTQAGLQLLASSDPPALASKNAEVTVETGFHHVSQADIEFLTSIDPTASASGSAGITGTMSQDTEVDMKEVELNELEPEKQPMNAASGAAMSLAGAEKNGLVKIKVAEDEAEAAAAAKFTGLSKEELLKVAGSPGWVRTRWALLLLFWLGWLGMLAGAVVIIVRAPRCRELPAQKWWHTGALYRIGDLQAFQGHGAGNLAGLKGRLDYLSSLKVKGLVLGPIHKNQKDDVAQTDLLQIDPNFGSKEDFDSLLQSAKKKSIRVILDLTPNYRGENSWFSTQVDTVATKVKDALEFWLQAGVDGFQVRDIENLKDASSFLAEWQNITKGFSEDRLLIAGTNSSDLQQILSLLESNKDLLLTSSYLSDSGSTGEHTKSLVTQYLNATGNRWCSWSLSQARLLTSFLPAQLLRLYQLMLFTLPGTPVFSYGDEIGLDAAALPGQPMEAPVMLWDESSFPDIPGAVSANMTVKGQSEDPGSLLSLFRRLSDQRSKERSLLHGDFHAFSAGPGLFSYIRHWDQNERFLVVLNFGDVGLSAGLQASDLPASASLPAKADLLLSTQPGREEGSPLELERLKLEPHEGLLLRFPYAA
Assay: cryo-EM structure; LAT1-4F2hc coexpressed and purified as a complex in 25 mM Hepes pH 7.5, 150 mM NaCl, 0.01% GDN; incubated with 10 mM Leu, 1 mM Trp, 1 mM L-DOPA or 1 mM Tyr for 2 h; four structures
Conditions: both partners purified

B1: L-type amino acid transporter 1 (LAT1, SLC7A5) (natural protein)
chain: not shown
notes: LAT1 (SLC7A5), human, full-length cDNA NM_003486.7 in pCAG vector; Purified as a complex with m2 (4F2hc); also called light chain; source: HEK293F, coexpressed with 4F2hc, purified (anti-FLAG resin, nickel-NTA, size-exclusion chromatography in GDN)
Question: Does B1 bind?
Answer: Result: binds
